We go through 1 substance from article PMC11117822.

In the test the target is poly-L-arginine hydrochloride. Kind of test: optical reflectometry; PARG layer adsorbed on silica in a stagnation point flow cell; HSA 5 mg L^-1 flowed over it at Q = 8.33 x 10^-3 cm^3 s^-1; 150 mM NaCl, pH 4.0; 298 K.

Regarding “human serum albumin (from UniProt P02768 25-609)”, the plateau coverage came out at 0.1 mg m^−2.
